Results taken from patent US20090214627.

What was measured:
[1] = test system: insulin receptor substrate-1 (IRS-1) peptide Y^608
[2] = target: T1, Peptide 1: Lys-Lys-His-Ala-Asp-Asp-Gly-Ala-Met-Pro-Met-Ser-Pro-Gly-Val-Ala (mutant IRS-1 peptide)
T1 chain: KKHADDGAMPMSPGVA

[3] = target: T2, Peptide 2: Arg-Thr-Glu-Ser-Ile-Thr-Ala-Thr-Ser-Pro-Ala-Ser-Met-Val-Gly-Gly-Lys-Pro (second IRS-1 peptide)
T2 chain: RTESITATSPASMVGGKP

[4] = target: insulin receptor substrate-1 (IRS-1) peptide Y^608; remark: listed apart in the source

GST-hBVR G17 mutant (GVGRA to GVARA), ATP binding domain mutant
IRS phosphorylation by BVR (32P kinase assay) [1]: G^17 mutation, for the most part, prevented IRS phosphorylation by BVR

B1: GST-hBVR fusion protein, wild type (human biliverdin reductase fused to glutathione-S-transferase) (protein)
chain: MNAEPERKFGVVVVGVGRAGSVRMRDLRNPHPSSAFLNLIGFVSRRELGSIDGVQQISLEDALSSQEVEVAYICSESSSHEDYIRQFLNAGKHVLVEYPMTLSLAAAQELWELAEQKGKVLHEEHVELLMEEFAFLKKEVVGKDLLKGSLLFTSDPLEEDRFGFPAFSGISRLTWLVSLFGELSLVSATLEERKEDQYMKMTVCLETEKKSPLSWIEEKGPGLKRNRYLSFHFKSGSLENVPNVGVNKNIFLKDQNIFVQKLLGQFSEKELAAEKKRILHCLGLAEEIQKYCCSRK
peptide phosphorylation by BVR (32P retained on P81 filters) [2]: both the mutated and unmutated peptides were phosphorylated to about the same extent (1049±78 cpm and 1081±183 cpm respectively)
peptide phosphorylation by BVR (32P retained on P81 filters) [3]: this peptide is also a suitable substrate for BVR (1198±230 cpm)
IRS-1 phosphorylation by BVR (32P kinase assay) [4]: IRS-1 is a substrate for BVR
peptide phosphorylation by BVR (32P retained on P81 filters) [4]: both the mutated and unmutated peptides were phosphorylated to about the same extent (1049±78 cpm and 1081±183 cpm respectively)
phosphorylation of BVR by IRK in the presence of increasing molar ratio of IRS/BVR [4]: in the presence of increasing amounts of IRS, there was an increase in phosphorylation of BVR by IR up to equimolar ratio of IRS/BVR
